Measurements as given in the Immune Epitope Database (IEDB).

How the values were obtained:
HLA-B*18:01 [1] = test: IEDB peptide-MHC binding, purified MHC/competitive/radioactivity; filed as Kd, often an IC50 or EC50 that approximates it; ≥ and ≤ were set here for values at or beyond the usual limits of such assays; details: source organism: Hepatitis B virus
HLA-B*40:02 [2] = test: IEDB peptide-MHC binding, purified MHC/competitive/radioactivity; ≥ and ≤ were set here for values at or beyond the usual limits of such assays
HLA-B*44:02 = test: as above
HLA-B*45:01 [3] = test: as above
HLA-B*44:03 = test: as above
HLA-B*40:01 [4] = test: as above
HLA-B*40:02 [5] = test: IEDB peptide-MHC binding, purified MHC/competitive/radioactivity; filed as Kd, often an IC50 or EC50 that approximates it; ≥ and ≤ were set here for values at or beyond the usual limits of such assays; details: source organism: Plasmodium falciparum
HLA-B*18:01 [6] = test: IEDB peptide-MHC binding, purified MHC/competitive/radioactivity; ≥ and ≤ were set here for values at or beyond the usual limits of such assays
HLA-B*45:01 [7] = test: IEDB peptide-MHC binding, purified MHC/competitive/radioactivity; filed as Kd, often an IC50 or EC50 that approximates it; ≥ and ≤ were set here for values at or beyond the usual limits of such assays
HLA-B*40:01 [8] = test: as above; details: source organism: Hepatitis B virus
[9] = source organism: Hepatitis B virus
[10] = source organism: Plasmodium falciparum
[11] = source organism: Human immunodeficiency virus 1
[12] = source organism: Hepatitis C virus (isolate HCV-K3a/650)

Question: What does the source list for AELLAACFA?
Answer: Kd (HLA-B*18:01 [1]): 13.5 µM; IC50 (HLA-B*40:02 [2]; [9]): 0.05 µM; IC50 (HLA-B*44:02; [9]): 0.332 µM; IC50 (HLA-B*45:01 [3]; [9]): 0.0066 µM; IC50 (HLA-B*44:03; [9]): 0.059 µM; IC50 (HLA-B*40:01 [4]; [9]): 0.585 µM

Question: Which results are given for NELNYDNAGI?
Answer: Kd (HLA-B*40:02 [5]): ≥ 23.6 µM; IC50 (HLA-B*18:01 [6]; [10]): 4.61 µM; IC50 (HLA-B*44:02; [10]): 0.105 µM; IC50 (HLA-B*45:01 [3]; [10]): 0.457 µM; IC50 (HLA-B*44:03; [10]): 0.072 µM; IC50 (HLA-B*40:01 [4]; [10]): 4.13 µM

Question: How did the Kd (HLA-B*45:01 [7]; [11]) turn out when TERQANFL was run?
Answer: 9.72 µM

Question: What about the IC50 (HLA-B*18:01 [6]; [11]) of the same sequence?
Answer: 0.304 µM

Question: And the IC50 (HLA-B*40:02 [2]; [11])?
Answer: 0.023 µM

Question: And the IC50 (HLA-B*44:02; [11])?
Answer: 9.05 µM

Question: And the IC50 (HLA-B*44:03; [11])?
Answer: 2.21 µM

Question: And the IC50 (HLA-B*40:01 [4]; [11])?
Answer: 0.223 µM

Question: Which IC50 (HLA-B*18:01 [6]; [10]) does the source give for DEFKPIVQY here?
Answer: 0.0039 µM

Question: And the IC50 (HLA-B*44:02; [10])?
Answer: 0.012 µM

Question: What about the IC50 (HLA-B*44:03; [10]) of the same sequence?
Answer: 0.401 µM

Question: SENERGYYI was tested. Which IC50 (HLA-B*18:01 [6]; [10]) did it give?
Answer: 0.301 µM

Question: And the IC50 (HLA-B*40:02 [2]; [10])?
Answer: 0.227 µM

Question: And the IC50 (HLA-B*44:02; [10])?
Answer: 0.15 µM

Question: And the IC50 (HLA-B*45:01 [3]; [10])?
Answer: 0.336 µM

Question: And the IC50 (HLA-B*44:03; [10])?
Answer: 0.091 µM

Question: And the IC50 (HLA-B*40:01 [4]; [10])?
Answer: 3.73 µM

Question: GEIPFYGKAI was tested. Which Kd (HLA-B*45:01 [7]; [12]) did it give?
Answer: 5.4 µM

Question: And the IC50 (HLA-B*40:02 [2]; [12])?
Answer: 0.087 µM

Question: And the IC50 (HLA-B*44:03; [12])?
Answer: 0.113 µM

Question: What about the IC50 (HLA-B*40:01 [4]; [12]) of the same sequence?
Answer: 0.146 µM

Question: RENANQLVV was tested. Which IC50 (HLA-B*18:01 [6]; [10]) did it give?
Answer: 0.757 µM

Question: And the IC50 (HLA-B*40:02 [2]; [10])?
Answer: 0.02 µM

Question: What about the IC50 (HLA-B*44:02; [10]) of the same sequence?
Answer: 0.638 µM

Question: What about the IC50 (HLA-B*45:01 [3]; [10]) of the same sequence?
Answer: 0.037 µM

Question: And the IC50 (HLA-B*44:03; [10])?
Answer: 0.48 µM

Question: And the IC50 (HLA-B*40:01 [4]; [10])?
Answer: 0.174 µM

Question: What does the source list for IEAEVIPA?
Answer: Kd (HLA-B*45:01 [7]; [11]): 0.347 µM; IC50 (HLA-B*18:01 [6]; [11]): 0.061 µM; IC50 (HLA-B*40:02 [2]; [11]): 0.062 µM; IC50 (HLA-B*44:02; [11]): 0.859 µM; IC50 (HLA-B*44:03; [11]): 6.4 µM; IC50 (HLA-B*40:01 [4]; [11]): 5.95 µM

Question: NETPGIRYQY was tested. Which Kd (HLA-B*45:01 [7]; [11]) did it give?
Answer: 10.6 µM

Question: And the IC50 (HLA-B*18:01 [6]; [11])?
Answer: 0.179 µM

Question: And the IC50 (HLA-B*40:02 [2]; [11])?
Answer: ≥ 20 µM

Question: And the IC50 (HLA-B*44:02; [11])?
Answer: 0.075 µM

Question: And the IC50 (HLA-B*44:03; [11])?
Answer: 0.062 µM

Question: And the IC50 (HLA-B*40:01 [4]; [11])?
Answer: ≥ 20 µM

Question: Which IC50 (HLA-B*40:02 [2]; [9]) does the source give for AELLAACF here?
Answer: 0.093 µM

Question: And the IC50 (HLA-B*44:02; [9])?
Answer: 0.0093 µM

Question: And the IC50 (HLA-B*45:01 [3]; [9])?
Answer: 0.247 µM

Question: And the IC50 (HLA-B*44:03; [9])?
Answer: 0.027 µM

Question: What about the IC50 (HLA-B*40:01 [4]; [9]) of the same sequence?
Answer: 0.734 µM

Question: QEILDLWVY was tested. Which Kd (HLA-B*45:01 [7]; [11]) did it give?
Answer: 6.26 µM

Question: And the IC50 (HLA-B*18:01 [6]; [11])?
Answer: 0.052 µM

Question: What about the IC50 (HLA-B*40:02 [2]; [11]) of the same sequence?
Answer: 4.52 µM

Question: What about the IC50 (HLA-B*44:02; [11]) of the same sequence?
Answer: 0.264 µM

Question: What about the IC50 (HLA-B*44:03; [11]) of the same sequence?
Answer: 0.172 µM

Question: And the IC50 (HLA-B*40:01 [4]; [11])?
Answer: 0.739 µM

Question: What does the source list for AEAALENLV?
Answer: IC50 (HLA-B*40:02 [2]; [12]): 0.107 µM; IC50 (HLA-B*45:01 [3]; [12]): 0.035 µM; IC50 (HLA-B*44:03; [12]): 0.309 µM; IC50 (HLA-B*40:01 [4]; [12]): 0.245 µM

Question: With DEVDLYLLM as the sequence, how does the IC50 (HLA-B*18:01 [6]; [10]) read?
Answer: 0.017 µM

Question: What about the IC50 (HLA-B*40:02 [2]; [10]) of the same sequence?
Answer: 1.02 µM

Question: And the IC50 (HLA-B*44:02; [10])?
Answer: 0.107 µM

Question: What about the IC50 (HLA-B*44:03; [10]) of the same sequence?
Answer: 0.084 µM

Question: What about the IC50 (HLA-B*40:01 [4]; [10]) of the same sequence?
Answer: 2.93 µM

Question: For RETVLEYLV, which IC50 (HLA-B*40:02 [2]; [9]) is on record?
Answer: 0.036 µM

Question: What about the IC50 (HLA-B*45:01 [3]; [9]) of the same sequence?
Answer: 0.205 µM

Question: And the IC50 (HLA-B*44:03; [9])?
Answer: 4.83 µM

Question: What about the IC50 (HLA-B*40:01 [4]; [9]) of the same sequence?
Answer: 0.412 µM

Question: Which results are given for AENLWVTVY?
Answer: IC50 (HLA-B*18:01 [6]; [11]): 0.051 µM; IC50 (HLA-B*40:02 [2]; [11]): 0.09 µM; IC50 (HLA-B*44:02; [11]): 0.066 µM; IC50 (HLA-B*45:01 [3]; [11]): 0.068 µM; IC50 (HLA-B*44:03; [11]): 0.16 µM; IC50 (HLA-B*40:01 [4]; [11]): 3.37 µM

Question: Which results are given for WEFVNTPPL?
Answer: Kd (HLA-B*45:01 [7]; [11]): 5.21 µM; IC50 (HLA-B*18:01 [6]; [11]): 0.0059 µM; IC50 (HLA-B*40:02 [2]; [11]): 0.0086 µM; IC50 (HLA-B*44:02; [11]): 0.072 µM; IC50 (HLA-B*44:03; [11]): 0.378 µM; IC50 (HLA-B*40:01 [4]; [11]): 0.0025 µM

Question: With AENLYVTVF as the sequence, how does the IC50 (HLA-B*40:02 [2]; [11]) read?
Answer: 0.0031 µM

Question: And the IC50 (HLA-B*44:02; [11])?
Answer: 0.039 µM

Question: What about the IC50 (HLA-B*45:01 [3]; [11]) of the same sequence?
Answer: 0.069 µM

Question: And the IC50 (HLA-B*44:03; [11])?
Answer: 0.047 µM

Question: And the IC50 (HLA-B*40:01 [4]; [11])?
Answer: 0.017 µM

Question: For VELLSFLPSDF, which Kd (HLA-B*45:01 [7]; [9]) is on record?
Answer: 10.4 µM

Question: What about the Kd (HLA-B*40:01 [8]) of the same sequence?
Answer: 5.56 µM

Question: And the IC50 (HLA-B*18:01 [6]; [9])?
Answer: 0.414 µM

Question: And the IC50 (HLA-B*40:02 [2]; [9])?
Answer: 0.48 µM

Question: And the IC50 (HLA-B*44:02; [9])?
Answer: 0.299 µM

Question: And the IC50 (HLA-B*44:03; [9])?
Answer: 0.412 µM
